# In the DeepSol protein solubility set:
# Experiment: soluble on expression in E. coli; label from the status in PepcDB or PDB records
row,Sequence,soluble on expression in E. coli
1,MAHHHHHHMCISELRSLRGHGRNVYIIYDVAKEGTPPPRHFASTSGWGMIAVSFPKVTNYDEWEKQLKAARIIMNCPDGMDVKAMCAWMERDGDTDEQTKYWKMVETHMEKVGPIPRHIFYAKGINARFGAVENALEAINSRYADDRFILPGGGLWYAKDPSQKLVRIVRIRGERGNERFRNAPICYFLGSRSANILAKAMSEKDFLLLVWGVRKTISSAYLEKFCLRALIFGRFFSAMAEELKELNSPAHDIQDTVLKANPGAHPTEICEIPGVGKIDAKQNINHRVLYIPMLRDFPLVDCFFFVESPRRTLVGLQMTTAGEHHTTTSTVRQFTEHLSKFFNGWDEFAQGLSWRDYLCAARRQHADEWLAEMWCRRPAECGRC,not soluble
2,MAHHHHHHMDMLGAVVVENSNLTTTLPAPHTLHERPAEGFSPQRRVLLVPLTEAYEHTTGWMVPTEMEGAQLAMSLYVNDTPVSLPPNWQLSPAKEAAAVKTAMAVDITPLVLSIERDLFSLQVIFSGDVAEMEMWRGVIACVLVEEVELAQLGERIVSTYHKRRAPVIRRSPLSSCGERGVVAITEVSVKIQCPITTLTMEIPVRGMYCEHLQCMELAAVLIQCARQNVWNCPLCSAAMKPEDIIVNHRLKDWIASHSREVVAQVEYIVETELGRPLKIVYKAARPEQHSTIEVIDDEEK,not soluble
3,MAHHHHHHMDMLHQIYALEYKRNTQRSDRIRDKDKTKIRILFIGGNEFSLLCFKVIRLIIKYVRNDIVLDHVITKSPRKKGRHLKLKKSHIEEEAEKEKIKIFYYDKIRNDTYMLKNETFDLCISASFGEIFNASFFKNIASNVYTLHPSLLPLYRGASPIQRSLLNNESLFGYSIFLTNLRIDAGPVLIRSPHTFGDAFNFNDIITILFTLGSLHLMRHIFFLANYKLGSTNGELQRTVESPNPSTISTHNNNKHLKIRHLLYDEENITPHNVKKKQFMLHTDIGQDKMNYAWLRNYLMLSSTHNNNTYAPKIKSEERYVCFFCSTALHIHNKVRGFINWPKVECTLYLVHKGGLKAMEVKLIKTSQESGDHISHQHLHQFKHLDALQSHKCFDGIPRKLAIFNRGAINILCKDNSLLKIYKLQRKNKKIMDASSFFNSINGVDLLY,not soluble
4,MAHHHHHHMDPSAFGMMAGRGMGRQTEVRDARDTAETIQISSIALLKMLIHGRAGVPLEVMGLMIGEEIDDYTIRVADVFSMPQTATGQSVEAVDPEYQVHMLDKLKLVGRHENVVGWYHSHPGFGCWLSSEDVMTAAGYENLTPRSVSVVVDPIQSVRGKVVIDAFRTIPQEIMAMRAMGEYVEPRQVTSNIGFLSKPSAVALSHNLNRQYYNLPVTFRKKNHELRLLLNVYRKGWQEGFKLEKAKVYQRETRTSIRELISLSKQAEKYITQGRDEDDLGNVGQINAMSHLQMEAENVIHRNLNQSIGAMINAVVF,not soluble
5,MAHHHHHHMDPYPPSRVEVTVDDSFGRLEGLAEEHSIIEETWRKLMKGLERKILHNGLKFRLHNVVQYDNGKCHLQLGITDYKSSMGVATNVDYFLRSTSDGGTDRRKYLARALGIECFTTTSDEKAVMFCRSSLVSEYPGYYCFPGGHPEPQDILCQLPLSGPATGNHNNIDHNHNSVQNSDLLNDRLRREEAVSQLSGVNPEVIVQHLFDSAVMEVADELGVERTACRNRGLLSIVENMKNMKPDACFWVEVNQTAAEVQARFDSRVGFDAFESVPHSLVVVHLDDIVDCEGAELFIKDCLGGKVTPPSVACWLHGMACYRSLRGTLGKAQTHSFA,not soluble
6,MAHHHHHHMDTEAIKETAIREVCELSKTLKGTPFAITQRWKHIEALISTFERLLRRLELINLLCCEDEDSVSILKLYTQSQIASLEVLMKALMERGPNAAAFAAYAAGRLDEFVAVFTQSVGKTPRTNACVIADSGMRRWDQAAANGCEHNVVGNAAQNFLDLEVLLKTTLLTRGNQKGESKQCPLTKSDLSGYATVDDAPDRIKWAGGLLTVHKMYGWKEDGWSTNGRNVEFIKEAAEQFKEIKKVLEKQLPNGLDSIDALNAFLKREEPDAMMKDAIKTHQGWEEEKDDKTIIEKIKEIFGIGEPCAKIEFIETLIRTNVSARESGCTKQIDLFQLTTRQMEEVKERRLDQLRKTKTEAENYPRDMAKLSALKTNTNTKQGEYGECQFLCKRYKNAKAENEATDAAPNSPAAARKCRGKTENDCKDECKWDGNVCKNSDETSDYSRVCYSPLFPVLLLSLF,not soluble
7,MAHHHHHHMEDITWVRSEVHSWIYDNLRAKWTSLVRQPTKLRTMFSGYRSTPTFVDRVLRRVGIANEIALTAMLRTWGPPELHAFVALYVRLRFPMIVALNKADLSTAADVAAALRQAYPHEVFVLMTARIEWLALQLSRKGYVDYTPGAASLSLKADCGEGADLEKRVRQELHDVTSFFRTTTSSPERLSSSVLRLTTTGVQDVLAAAMEACGVMLVYPVRAFHPVTSLAHCLTFKLGSSAERVFNALVHLQLLEGKLARFEMIDLAPVKRQLHQQLLASLATAPSNEASTPVPAQQQQCAVALPTSVQTLRKTEVIRSSAVLARILSNKRQLA,not soluble
8,MAHHHHHHMEPSVKESVSRIPLLKTKAGPRDGDKWTARLKEEYASLITYVEHNKASDSHWFHLESNPQGTRWYGTCWTYYKNEKYEFEMNFDIPVTYPQAPPEIALPELEGKTVKMYRGGKICMTTHFFPLWARNVPYFGISHVLALGLGPWLSIEVPAIVEEGYLKPASAATVPTTGE,soluble
9,MAHHHHHHMESIKAKCTAKNLVNEKPAQKTPLSISISEKHKAQLREAFDLFDSEGTGRIKALDVKVALCALGYDVSKEELTQLLKQVGGSIVGGVDFNEFYCVLLAKMMQRESRSEAIRAFRLIDVAEKGYISVDDLRPIADSLEMDLTDDELAEMVLFAHPPVGFGKNENDIKEPLTVSEEEFLKLMGRAHVY,soluble
10,MAHHHHHHMETIQELILSEENKTNIAVLNLGTNDRRNAVLILETALHLVEKYLGKIINTSYLYETVPEYIVLDKKESCEKINKDCRIYDVNYINELMQNLEESKYEENKELIDKCEEYETFLKNGKVDNSILKEVNVENYLLECNNIIVKNDEIMKNNLSKYKDKYYTSYFYNLTVVVKTFVNDPLSMLVVIKYIEELMKRENVKEKEKFENRIIDIDILFFNDFTIFMKNIKLEKNMIYKILSKYIHLERDIKNGNDNMSKVNMDKDINLNNNNNIKKKNNNDIDCDCVDQKMNNHVNNKNYINSFRDPQEIINNMVDNIEFLSIPHVYTTHRYSILLCLNDMIPEYKHNVLNNTIRCLYNKYVSRMKEQYNINIKENNKRIYVLKDRISYLKEKTNIVGILNVNYDSFSDGGIFVEPKRAVQRMFEMINEGASVIDIGGESSGPFVIPNPKISERDLVVPVLQLFQKEWNDIKNKIVKCDAKPIISIDTINYNVFKECVDNDLVDILNDISACTNNPEIIKLLKKKNKFYSVVLMHKRGNPHTMDKLTNYDNLVYDIKNYLEQRLNFLVLNGIPRYRILFDIGLGFAKKHDQSIKLLQNIHVYDEYPLFIGYSRKRFIAHCMNDQNVVINTQQKLHDEQQNENKNIVDKSHNWMFQMNYMRKDKDQLLYQKNICGGLAIASYSYYKKVDLIRVHDVLETKSVLDVLTKIDQV,not soluble
11,MAHHHHHHMFGTPVENLTANQIKEELRTLYGVSDFSGCIEQKDLQEKLEKTRETELITHGLKYGPLLQIGNRQSPSGIVTLTHGLGDSANGWESVAVELSRRLPHLLFLLPTASMQPVGINGGAVMNSWYDIRNVSSGNGVTEDAEAIIMSANYLKSLAYTASRRYQVPAGRVVYAGFSQGAVISLAAGLTARIAPAGVAALSGYFAAAEKILPQLCNKSLPVLLCHGTMDNIIPFSAAEKTKETLESLGVGPVTLYSYPMEHSSHPKEINDLEKFLQQVLPGPSSKS,soluble
12,MAHHHHHHMFHGMNKTNTWAVILSSSRYFFNLRHTTNALAMYHLCRKHGMDDDHILVFLSDSYACDPRKPNPATIYGAPAQAEQPNLYGCNIRVDYASYDVGVRRFLGVLQGRYDENTPPSRRLDTDENSNIIIYAAGHSAEKFFKFQDSEFMSSTDIADTLMMMWEQRRYRKLVFLVDTCRALSLCLEIKAPNVVCLASSEAHLDSYSHHLDPPSGFTVITRWTFEFLEVLKDSKCRPENGEVTLLQKSFYDFNYGPERLSLPQPLSEPAHFDAVNRPNAVREWKMDEFFCEQDRDKIPVELRYDLF,not soluble
13,MAHHHHHHMFSLSDTQLGISPMRQFSPSLFRQNKVAEKYRATQGTGIGPQYHQLSDGRLVRPGTSHTKLLPMLEPGETVDWEKLPSYYHWYPKEELHDYIENTTWREIKGRPTGEPLEKRLRKAITGGTFEKDEAPAPDLMPWNSATIPITKFPHERNDEEIIVVDPKTGRIIGMERETYERWKRMMEERRAGLPESDPVEYDQERYVTNKDGVVFDLSKMKYRPIFEGRWNPRRQQSTGRTNPIMT,soluble
